# B1: Pistol ribozyme (parent)
# chain: GGGUCGUUGUUCCAUAAUCGCGUGGAUAUGGCACGCAAGUUUCUACCGGGCACCGUAAAUGUCCGACUGGAGCCGUUCGGGCGGCUAUAAACAGACCUCAGGCCCGAAGCGUGGCGGCACCUGCCGCCGGUGGUAAAAAAGAUCGGAAGAGCACACGUCU
# Variants of: B1
# Test: aptazyme ON/OFF ratio, guanine; higher = stronger switching; co-transcriptional cleavage with and without guanine
row,Variant,aptazyme ON/OFF ratio
1,GGGUCGUCGGCGCAUAAUCGCGUGGAUAUGGCACGCAAGUUUCUACCGGGCACCGUAAAUGUCCGACUGGAGCCGUUCGGGCGGCUAUAAACAGACCUCAGGCCCGAAGCGUGGCGGCACCUGCCGCCGGUGGUAAAAAAGAUCGGAAGAGCACACGUCU [U8C U10G U11C C12G],1.78
2,GGGUCGUCGGCUCAUAAUCGCGUGGAUAUGGCACGCAAGUUUCUACCGGGCACCGUAAAUGUCCGACUGGAGCCGUUCGGGCGGCUAUAAACAGACCUCAGGCCCGAAGCGUGGCGGCACCUGCCGCCGGUGGUAAAAAAGAUCGGAAGAGCACACGUCU [U8C U10G U11C C12U],1.21
3,GGGUCGUCGGCACAUAAUCGCGUGGAUAUGGCACGCAAGUUUCUACCGGGCACCGUAAAUGUCCGACUGGAGCCGUUCGGGCGGCUAUAAACAGACCUCAGGCCCGAAGCGUGGCGGCACCUGCCGCCGGUGGUAAAAAAGAUCGGAAGAGCACACGUCU [U8C U10G U11C C12A],2.79
4,GGGUCGUCGGGUAAUAAUCGCGUGGAUAUGGCACGCAAGUUUCUACCGGGCACCGUAAAUGUCCGACUGGAGCCGUUCGGGCGGCUAUAAACAGACCUCAGGCCCGAAGCGUGGCGGCACCUGCCGCCGGUGGUAAAAAAGAUCGGAAGAGCACACGUCU [U8C U10G U11G C12U C13A],1.11
5,GGGUCGUCGGGUGAUAAUCGCGUGGAUAUGGCACGCAAGUUUCUACCGGGCACCGUAAAUGUCCGACUGGAGCCGUUCGGGCGGCUAUAAACAGACCUCAGGCCCGAAGCGUGGCGGCACCUGCCGCCGGUGGUAAAAAAGAUCGGAAGAGCACACGUCU [U8C U10G U11G C12U C13G],1.12
6,GGGUCGUCGGGAGAUAAUCGCGUGGAUAUGGCACGCAAGUUUCUACCGGGCACCGUAAAUGUCCGACUGGAGCCGUUCGGGCGGCUAUAAACAGACCUCAGGCCCGAAGCGUGGCGGCACCUGCCGCCGGUGGUAAAAAAGAUCGGAAGAGCACACGUCU [U8C U10G U11G C12A C13G],1.09
7,GGGUCGUCGGGAUAUAAUCGCGUGGAUAUGGCACGCAAGUUUCUACCGGGCACCGUAAAUGUCCGACUGGAGCCGUUCGGGCGGCUAUAAACAGACCUCAGGCCCGAAGCGUGGCGGCACCUGCCGCCGGUGGUAAAAAAGAUCGGAAGAGCACACGUCU [U8C U10G U11G C12A C13U],1.22
8,GGGUCGUCGGGAAAUAAUCGCGUGGAUAUGGCACGCAAGUUUCUACCGGGCACCGUAAAUGUCCGACUGGAGCCGUUCGGGCGGCUAUAAACAGACCUCAGGCCCGAAGCGUGGCGGCACCUGCCGCCGGUGGUAAAAAAGAUCGGAAGAGCACACGUCU [U8C U10G U11G C12A C13A],1.11
9,GGGUCGUCGGCUGAUAAUCGCGUGGAUAUGGCACGCAAGUUUCUACCGGGCACCGUAAAUGUCCGACUGGAGCCGUUCGGGCGGCUAUAAACAGACCUCAGGCCCGAAGCGUGGCGGCACCUGCCGCCGGUGGUAAAAAAGAUCGGAAGAGCACACGUCU [U8C U10G U11C C12U C13G],1.19
10,GGGUCGUCGGCUUAUAAUCGCGUGGAUAUGGCACGCAAGUUUCUACCGGGCACCGUAAAUGUCCGACUGGAGCCGUUCGGGCGGCUAUAAACAGACCUCAGGCCCGAAGCGUGGCGGCACCUGCCGCCGGUGGUAAAAAAGAUCGGAAGAGCACACGUCU [U8C U10G U11C C12U C13U],1.28
11,GGGUCGUCGGCUAAUAAUCGCGUGGAUAUGGCACGCAAGUUUCUACCGGGCACCGUAAAUGUCCGACUGGAGCCGUUCGGGCGGCUAUAAACAGACCUCAGGCCCGAAGCGUGGCGGCACCUGCCGCCGGUGGUAAAAAAGAUCGGAAGAGCACACGUCU [U8C U10G U11C C12U C13A],1.26
12,GGGUCGUCGGACGAUAAUCGCGUGGAUAUGGCACGCAAGUUUCUACCGGGCACCGUAAAUGUCCGACUGGAGCCGUUCGGGCGGCUAUAAACAGACCUCAGGCCCGAAGCGUGGCGGCACCUGCCGCCGGUGGUAAAAAAGAUCGGAAGAGCACACGUCU [U8C U10G U11A C13G],1.19
13,GGGUCGUCGGACAAUAAUCGCGUGGAUAUGGCACGCAAGUUUCUACCGGGCACCGUAAAUGUCCGACUGGAGCCGUUCGGGCGGCUAUAAACAGACCUCAGGCCCGAAGCGUGGCGGCACCUGCCGCCGGUGGUAAAAAAGAUCGGAAGAGCACACGUCU [U8C U10G U11A C13A],1.26
14,GGGUCGUCGGACUAUAAUCGCGUGGAUAUGGCACGCAAGUUUCUACCGGGCACCGUAAAUGUCCGACUGGAGCCGUUCGGGCGGCUAUAAACAGACCUCAGGCCCGAAGCGUGGCGGCACCUGCCGCCGGUGGUAAAAAAGAUCGGAAGAGCACACGUCU [U8C U10G U11A C13U],1.18
15,GGGUCGUCGGCCCAUAAUCGCGUGGAUAUGGCACGCAAGUUUCUACCGGGCACCGUAAAUGUCCGACUGGAGCCGUUCGGGCGGCUAUAAACAGACCUCAGGCCCGAAGCGUGGCGGCACCUGCCGCCGGUGGUAAAAAAGAUCGGAAGAGCACACGUCU [U8C U10G U11C],1.1
16,GGGUCGUCGGGCCAUAAUCGCGUGGAUAUGGCACGCAAGUUUCUACCGGGCACCGUAAAUGUCCGACUGGAGCCGUUCGGGCGGCUAUAAACAGACCUCAGGCCCGAAGCGUGGCGGCACCUGCCGCCGGUGGUAAAAAAGAUCGGAAGAGCACACGUCU [U8C U10G U11G],1.26
17,GGGUCGUCGGCAGAUAAUCGCGUGGAUAUGGCACGCAAGUUUCUACCGGGCACCGUAAAUGUCCGACUGGAGCCGUUCGGGCGGCUAUAAACAGACCUCAGGCCCGAAGCGUGGCGGCACCUGCCGCCGGUGGUAAAAAAGAUCGGAAGAGCACACGUCU [U8C U10G U11C C12A C13G],1.11
18,GGGUCGUCGGCAUAUAAUCGCGUGGAUAUGGCACGCAAGUUUCUACCGGGCACCGUAAAUGUCCGACUGGAGCCGUUCGGGCGGCUAUAAACAGACCUCAGGCCCGAAGCGUGGCGGCACCUGCCGCCGGUGGUAAAAAAGAUCGGAAGAGCACACGUCU [U8C U10G U11C C12A C13U],1.32

row,Variant,aptazyme ON/OFF ratio
1,GGGUCGUCGGCAAAUAAUCGCGUGGAUAUGGCACGCAAGUUUCUACCGGGCACCGUAAAUGUCCGACUGGAGCCGUUCGGGCGGCUAUAAACAGACCUCAGGCCCGAAGCGUGGCGGCACCUGCCGCCGGUGGUAAAAAAGAUCGGAAGAGCACACGUCU [U8C U10G U11C C12A C13A],1.24
2,GGGUCGUCGGAUGAUAAUCGCGUGGAUAUGGCACGCAAGUUUCUACCGGGCACCGUAAAUGUCCGACUGGAGCCGUUCGGGCGGCUAUAAACAGACCUCAGGCCCGAAGCGUGGCGGCACCUGCCGCCGGUGGUAAAAAAGAUCGGAAGAGCACACGUCU [U8C U10G U11A C12U C13G],1.12
3,GGGUCGUCGGAUUAUAAUCGCGUGGAUAUGGCACGCAAGUUUCUACCGGGCACCGUAAAUGUCCGACUGGAGCCGUUCGGGCGGCUAUAAACAGACCUCAGGCCCGAAGCGUGGCGGCACCUGCCGCCGGUGGUAAAAAAGAUCGGAAGAGCACACGUCU [U8C U10G U11A C12U C13U],1.25
4,GGGUCGUCGGAUAAUAAUCGCGUGGAUAUGGCACGCAAGUUUCUACCGGGCACCGUAAAUGUCCGACUGGAGCCGUUCGGGCGGCUAUAAACAGACCUCAGGCCCGAAGCGUGGCGGCACCUGCCGCCGGUGGUAAAAAAGAUCGGAAGAGCACACGUCU [U8C U10G U11A C12U C13A],1.35
5,GGGUCGUCGGGGUAUAAUCGCGUGGAUAUGGCACGCAAGUUUCUACCGGGCACCGUAAAUGUCCGACUGGAGCCGUUCGGGCGGCUAUAAACAGACCUCAGGCCCGAAGCGUGGCGGCACCUGCCGCCGGUGGUAAAAAAGAUCGGAAGAGCACACGUCU [U8C U10G U11G C12G C13U],1.26
6,GGGUCGUCGGGGAAUAAUCGCGUGGAUAUGGCACGCAAGUUUCUACCGGGCACCGUAAAUGUCCGACUGGAGCCGUUCGGGCGGCUAUAAACAGACCUCAGGCCCGAAGCGUGGCGGCACCUGCCGCCGGUGGUAAAAAAGAUCGGAAGAGCACACGUCU [U8C U10G U11G C12G C13A],1.16
7,GGGUCGUCGGGGGAUAAUCGCGUGGAUAUGGCACGCAAGUUUCUACCGGGCACCGUAAAUGUCCGACUGGAGCCGUUCGGGCGGCUAUAAACAGACCUCAGGCCCGAAGCGUGGCGGCACCUGCCGCCGGUGGUAAAAAAGAUCGGAAGAGCACACGUCU [U8C U10G U11G C12G C13G],1.13
8,GGGUCGUCGGAUCAUAAUCGCGUGGAUAUGGCACGCAAGUUUCUACCGGGCACCGUAAAUGUCCGACUGGAGCCGUUCGGGCGGCUAUAAACAGACCUCAGGCCCGAAGCGUGGCGGCACCUGCCGCCGGUGGUAAAAAAGAUCGGAAGAGCACACGUCU [U8C U10G U11A C12U],1.08
9,GGGUCGUCGGGUCAUAAUCGCGUGGAUAUGGCACGCAAGUUUCUACCGGGCACCGUAAAUGUCCGACUGGAGCCGUUCGGGCGGCUAUAAACAGACCUCAGGCCCGAAGCGUGGCGGCACCUGCCGCCGGUGGUAAAAAAGAUCGGAAGAGCACACGUCU [U8C U10G U11G C12U],1.32
10,GGGUCGUCGGGACAUAAUCGCGUGGAUAUGGCACGCAAGUUUCUACCGGGCACCGUAAAUGUCCGACUGGAGCCGUUCGGGCGGCUAUAAACAGACCUCAGGCCCGAAGCGUGGCGGCACCUGCCGCCGGUGGUAAAAAAGAUCGGAAGAGCACACGUCU [U8C U10G U11G C12A],1.18
11,GGGUCGUCGGGGCAUAAUCGCGUGGAUAUGGCACGCAAGUUUCUACCGGGCACCGUAAAUGUCCGACUGGAGCCGUUCGGGCGGCUAUAAACAGACCUCAGGCCCGAAGCGUGGCGGCACCUGCCGCCGGUGGUAAAAAAGAUCGGAAGAGCACACGUCU [U8C U10G U11G C12G],1.25
12,GGGUCGUCGGAGUAUAAUCGCGUGGAUAUGGCACGCAAGUUUCUACCGGGCACCGUAAAUGUCCGACUGGAGCCGUUCGGGCGGCUAUAAACAGACCUCAGGCCCGAAGCGUGGCGGCACCUGCCGCCGGUGGUAAAAAAGAUCGGAAGAGCACACGUCU [U8C U10G U11A C12G C13U],1.18
13,GGGUCGUCGGCCGAUAAUCGCGUGGAUAUGGCACGCAAGUUUCUACCGGGCACCGUAAAUGUCCGACUGGAGCCGUUCGGGCGGCUAUAAACAGACCUCAGGCCCGAAGCGUGGCGGCACCUGCCGCCGGUGGUAAAAAAGAUCGGAAGAGCACACGUCU [U8C U10G U11C C13G],1.07
14,GGGUCGUCGGCCUAUAAUCGCGUGGAUAUGGCACGCAAGUUUCUACCGGGCACCGUAAAUGUCCGACUGGAGCCGUUCGGGCGGCUAUAAACAGACCUCAGGCCCGAAGCGUGGCGGCACCUGCCGCCGGUGGUAAAAAAGAUCGGAAGAGCACACGUCU [U8C U10G U11C C13U],1.04
15,GGGUCGUCGGCCAAUAAUCGCGUGGAUAUGGCACGCAAGUUUCUACCGGGCACCGUAAAUGUCCGACUGGAGCCGUUCGGGCGGCUAUAAACAGACCUCAGGCCCGAAGCGUGGCGGCACCUGCCGCCGGUGGUAAAAAAGAUCGGAAGAGCACACGUCU [U8C U10G U11C C13A],1.05
16,GGGUCGUCGGCGAAUAAUCGCGUGGAUAUGGCACGCAAGUUUCUACCGGGCACCGUAAAUGUCCGACUGGAGCCGUUCGGGCGGCUAUAAACAGACCUCAGGCCCGAAGCGUGGCGGCACCUGCCGCCGGUGGUAAAAAAGAUCGGAAGAGCACACGUCU [U8C U10G U11C C12G C13A],1.18
17,GGGUCGUCGGCGUAUAAUCGCGUGGAUAUGGCACGCAAGUUUCUACCGGGCACCGUAAAUGUCCGACUGGAGCCGUUCGGGCGGCUAUAAACAGACCUCAGGCCCGAAGCGUGGCGGCACCUGCCGCCGGUGGUAAAAAAGAUCGGAAGAGCACACGUCU [U8C U10G U11C C12G C13U],1.32
18,GGGUCGUCGGCGGAUAAUCGCGUGGAUAUGGCACGCAAGUUUCUACCGGGCACCGUAAAUGUCCGACUGGAGCCGUUCGGGCGGCUAUAAACAGACCUCAGGCCCGAAGCGUGGCGGCACCUGCCGCCGGUGGUAAAAAAGAUCGGAAGAGCACACGUCU [U8C U10G U11C C12G C13G],1.17

# — the RNAGym collection of RNA variant scans (doi:10.1021/acssynbio.7b00057)
